According to patent publication US20060014712A1 (CeMines, Inc., published 2006):
Read-outs that look alike come from different tables or passages of the source.

Tests used:
Assay in all cases: cell-based or functional assay
[1] = molecular target: T1, STAT3 (Homo sapiens (Human), UniProt P40763)
[2] = molecular target: T2, MITF (Homo sapiens (Human), UniProt O75030-9)
[3] = molecular target: T3, SOX10 (Homo sapiens (Human), UniProt P56693)
[4] = molecular target: T1, STAT3; remark: listed apart in the source
[5] = molecular target: T2, MITF; remark: listed apart in the source
[6] = molecular target: T3, SOX10; remark: listed apart in the source

RPKKRKVRRRQLMLEPYALDMSRIRVLSESLGLATQSG [Scr-int1]
Apoptosis 7 d/% in SK-MEL-28 [1]: 0% | Apoptosis 7 d/% in SK-MEL-28 [2]: 0% | Apoptosis 7 d/% in SK-MEL-28 [3]: 0%

B1: STAT3-int1M (peptide)
peptide: TTGGSSPQGLEAKRPKKRKVRRRKMQQLEQMLTALDQMRRSIVSELAGLLS
Apoptosis 7 d/% in SK-MEL-28 [4]: 12%

RPKKRKVRRRVKRPMNAFMVWAQAARRKLADQY [SOX10-int1]
Apoptosis 7 d/% in SK-MEL-28 [3]: 55%

B2: Scr-int1M (peptide)
peptide: TTGGSSPQGLEAKRPKKRKVRRRQLMLEPYALDMSRIRVLSESLGLATQSG
Apoptosis 7 d/% in SK-MEL-28 [4]: 0% | Apoptosis 7 d/% in SK-MEL-28 [5]: 0% | Apoptosis 7 d/% in SK-MEL-28 [6]: 0%

TTGGSSPQGLEAKRPKKRKVRRRFNINDRIKELGTLIPKSNDPDMRWN [MITF-int1M]
Apoptosis 7 d/% in SK-MEL-28 [5]: 20%

TTGGSSPQGLEAKRPKKRKVRRRVKRPMNAFMVWAQAARRKLADQY [SOX10-int1M]
Apoptosis 7 d/% in SK-MEL-28 [6]: 32%
